Results on three molecules are retold here after patent US20140087995A1 (published 2014).

Assay [1] concerns the target T1, human calcitonin receptor (human, UniProt P30988 25-474).
T1 construct: whole, on cells; Assayed as cell membranes of BHK tk'ts 13 cells stably transfected with the human calcitonin receptor (Assay VII); also called hCTR; hCT
T1 sequence (looked up): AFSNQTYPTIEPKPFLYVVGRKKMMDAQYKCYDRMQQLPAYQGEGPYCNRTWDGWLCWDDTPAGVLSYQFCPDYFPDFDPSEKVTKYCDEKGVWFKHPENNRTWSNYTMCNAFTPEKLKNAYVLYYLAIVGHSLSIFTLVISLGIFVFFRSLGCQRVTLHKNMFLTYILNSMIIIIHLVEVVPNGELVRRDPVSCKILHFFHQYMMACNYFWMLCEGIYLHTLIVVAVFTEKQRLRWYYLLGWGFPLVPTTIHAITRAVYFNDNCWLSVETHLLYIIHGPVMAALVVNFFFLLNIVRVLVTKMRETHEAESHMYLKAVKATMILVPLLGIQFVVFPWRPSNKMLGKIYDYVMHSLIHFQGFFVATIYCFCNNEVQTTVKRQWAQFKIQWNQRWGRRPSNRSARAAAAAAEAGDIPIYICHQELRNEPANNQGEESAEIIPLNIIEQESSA
In words: SPA competition vs 125I-calcitonin, membranes of BHK cells with human calcitonin receptor (Assay VII). An outline of the steps:
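BHK hCTR membranes 35 ng/μL + SPA beads 0.05 mg/well; buffer 50 mM Hepes pH 7.4, 1 mM CaCl2, 5 mM MgCl₂, 0.1% OA, 0.02% Tween20. 120 min, 25° C., shaking. Scintillation count; IC50 by one-site binding competition.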

Assay [2] has as its target T1, human calcitonin receptor. In words: IC50 at hCTR divided by IC50 at hAmylin-R (SPA competition assays V and VII). A digest of the protocol: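 IC₅₀ values were derived by one-site competition analysis of SPA counts. Cell membranes (35 ng/μL) with SPA beads were incubated with test compounds for 120 min at 25° C in Hepes buffer, pH 7.4, containing CaCl2, MgCl₂, OA and Tween20.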

Assay [3] addresses T2, human amylin receptor (amylin 3(a) receptor: human calcitonin receptor with RAMP-3) (human, UniProt P30988 25-474; O60896 24-148).
T2 construct: whole, on cells; Assay used cell membranes of the Amylin 3(a)/CRE-luc BHK cells, not intact cells; also called hAmylin-R; hAmylinR
T2 sequence (looked up) 1: T1 sequence (looked up)
T2 sequence (looked up) 2: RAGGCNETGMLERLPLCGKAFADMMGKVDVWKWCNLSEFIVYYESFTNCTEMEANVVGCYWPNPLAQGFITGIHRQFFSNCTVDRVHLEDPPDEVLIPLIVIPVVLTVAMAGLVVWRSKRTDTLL
Description: SPA competition with 125I-rat amylin on membranes of BHK cells with human calcitonin receptor and RAMP-3 (Assay V). As for the experimental part: The binding assay was performed using scintillation proximity assay (SPA) beads (RPNQ0001) from PerkinElmer and cell membranes from the Amylin 3(a)/CRE-luc cells (as described in Assay (II)) were used. Membranes were prepared in the following way; the cells were rinsed with PBS and incubated with Versene for approximately 5 min before harvesting. The cells were flushed with PBS and the cell-suspension was centrifuged for 5 min at 1000 rpm. Cells were homogenized (ultrathurrax) in a buffer containing 20 mM Na-HEPES and 10 mM EDTA (pH 7.4) and centrifuged at 20.000 rpm for 15 min. The resulting pellet was resuspended, homogenized and centrifuged (20.000 rpm, 15 min) in a buffer containing 20 mM Na-HEPES and 0.1 mM EDTA (pH 7.4, buffer 2). The resulting pellet was resuspended in buffer 2 and protein concentration was measured (BCA protein Assay, Pierce). The homogenate was kept cold during the whole procedure. The membranes were kept at −80° C. until use. The assay was performed in a 384 well Optiplate (PerkinElmer) in a total volume of 40 ul. Membranes were mixed with SPA beads. Final concentration of membranes 35 ng/μL final and SPA beads was 0.05 mg/well. Test-compounds were dissolved in DMSO and further diluted in assay buffer (50 mM Hepes, pH 7.4, 1 mM CaCl2, 5 mM MgCl₂, 0.1% OA and 0.02% Tween20). […] The final mixture was incubated with shaking at 400 rpm for 120 min at 25° C. prior to centrifugation (1500 rpm, 10 min). Samples were analyzed on TopCounter™ (Packard). The IC₅₀ was calculated using (one site binding competition analysis) GraphPad Prism5 as a measure of receptor affinity.

Assay [4] addresses T3, human calcitonin receptor (human, UniProt P30988 25-474).
T3 construct: whole, on cells; Assay used cell membranes, not intact cells; also called hCTR; hCT
T3 sequence (looked up): T1 sequence (looked up)
In words: SPA competition with 125I-calcitonin on membranes of BHK cells with human calcitonin receptor (Assay VII). As for the experimental part:
Membranes were prepared in the following way; the cells were rinsed with PBS and incubated with Versene for approximately 5 min before harvesting. The cells were flushed with PBS and the cell-suspension was centrifuged for 5 min at 1000 rpm. Cells were homogenized (Ultrathurrax) in a buffer containing 20 mM Na-HEPES and 10 mM EDTA (pH 7.4) and centrifuged at 20.000 rpm for 15 min. The resulting pellet was resuspended, homogenized and centrifuged (20.000 rpm, 15 min) in a buffer containing 20 mM Na-HEPES and 0.1 mM EDTA (pH 7.4, buffer 2). The resulting pellet was resuspended in buffer 2 and protein concentration was measured (BCA protein Assay, Pierce). The homogenate was kept cold during the whole procedure. The membranes were kept at −80° C. until use. Assay was performed in a 384 well Optiplate (PerkinElmer) in a total volume of 40 ul. Membranes were mixed with SPA beads. Final concentration of membranes 35 ng/μL final and Final concentration of SPA beads was 0.05 mg/well. Test-compounds were dissolved in DMSO and further diluted in assay buffer (50 mM Hepes, pH 7.4, 1 mM CaCl2, 5 mM MgCl₂, 0.1% OA and 0.02% Tween20). […] The final mixture was incubated for 120 min with shaking at 400 rpm at 25° C. prior to centrifugation (1500 rpm, 10 min). Samples were analyzed on TopCounter™ (Packard). The […] was calculated using (one site binding competition analysis) GraphPad Prism5 as a measure of receptor affinity.

Numbered stars: 1 amine (or outer) side, 2 acyl side, 3 side chain; on linkers, the order of the positions; unused ones are H or OH. Bridge positions count the residues as written; N and C are the ends. Square brackets hold non-standard residues; d marks the D form. Side chains are listed from the residue outwards. Ends that are not written are not given here. * marks the point of attachment. C20 diacid = O=C(O)CCCCCCCCCCCCCCCCCCC(=O)*; γGlu = O=C(O)[C@H](CCC(=O)[*:2])N[*:1]; AEEA = NCCOCCOCC(=O)O

As usually defined, the IC50 is the concentration that gives 50% inhibition.

B1: N^ε1-[2-[2-[2-(19-carboxynonadecanoylamino)ethoxy]ethoxy]acetyl]-[His14,Arg17,Pro21,Pro27]-h-amylin (peptide)
peptide: K([AEEA-C20 diacid])CNTATCATQRLAHFLRHSSPNFGAIPSSTNVGSNTY-NH2
modifications: disulfide 2-7; N-terminus assumed
SMILES: CC[C@H](C)[C@H](NC(=O)[C@H](C)NC(=O)CNC(=O)[C@H](Cc1ccccc1)NC(=O)[C@H](CC(N)=O)NC(=O)[C@@H]1CCCN1C(=O)[C@H](CO)NC(=O)[C@H](CO)NC(=O)[C@H](Cc1c[nH]cn1)NC(=O)[C@H](CCCNC(=N)N)NC(=O)[C@H](CC(C)C)NC(=O)[C@H](Cc1ccccc1)NC(=O)[C@H](Cc1c[nH]cn1)NC(=O)[C@H](C)NC(=O)[C@H](CC(C)C)NC(=O)[C@H](CCCNC(=N)N)NC(=O)[C@H](CCC(N)=O)NC(=O)[C@@H](NC(=O)[C@H](C)NC(=O)[C@@H]1CSSC[C@H](NC(=O)[C@@H](N)CCCCNC(=O)COCCOCCNC(=O)CCCCCCCCCCCCCCCCCCC(=O)O)C(=O)N[C@@H](CC(N)=O)C(=O)N[C@@H]([C@@H](C)O)C(=O)N[C@@H](C)C(=O)N[C@@H]([C@@H](C)O)C(=O)N1)[C@@H](C)O)C(=O)N1CCC[C@H]1C(=O)N[C@@H](CO)C(=O)N[C@@H](CO)C(=O)N[C@H](C(=O)N[C@@H](CC(N)=O)C(=O)N[C@H](C(=O)NCC(=O)N[C@@H](CO)C(=O)N[C@@H](CC(N)=O)C(=O)N[C@H](C(=O)N[C@@H](Cc1ccc(O)cc1)C(N)=O)[C@@H](C)O)C(C)C)[C@@H](C)O
notes: also called compound 90
B1: in assay [1], the IC50 came to 2.57 nM. Also, the “Ratio hCT/hAmylin binding” value in assay [2] came to 42.2.

B2: N^ε1-[(4S)-4-carboxy-4-[[(4S)-4-carboxy-4-(19-carboxynonadecanoylamino)butanoyl]amino]butanoyl]-[D-Asp14,Arg17,Pro21,Pro27,Arg35]-h-amylin (peptide)
peptide: K([γGlu-γGlu-C20 diacid])CNTATCATQRLA[dD]FLRHSSPNFGAIPSSTNVGSRTY-NH2
modifications: disulfide 2-7; N-terminus assumed
SMILES: CC[C@H](C)[C@H](NC(=O)[C@H](C)NC(=O)CNC(=O)[C@H](Cc1ccccc1)NC(=O)[C@H](CC(N)=O)NC(=O)[C@@H]1CCCN1C(=O)[C@H](CO)NC(=O)[C@H](CO)NC(=O)[C@H](Cc1c[nH]cn1)NC(=O)[C@H](CCCNC(=N)N)NC(=O)[C@H](CC(C)C)NC(=O)[C@H](Cc1ccccc1)NC(=O)[C@@H](CC(=O)O)NC(=O)[C@H](C)NC(=O)[C@H](CC(C)C)NC(=O)[C@H](CCCNC(=N)N)NC(=O)[C@H](CCC(N)=O)NC(=O)[C@@H](NC(=O)[C@H](C)NC(=O)[C@@H]1CSSC[C@H](NC(=O)[C@@H](N)CCCCNC(=O)CC[C@H](NC(=O)CC[C@H](NC(=O)CCCCCCCCCCCCCCCCCCC(=O)O)C(=O)O)C(=O)O)C(=O)N[C@@H](CC(N)=O)C(=O)N[C@@H]([C@@H](C)O)C(=O)N[C@@H](C)C(=O)N[C@@H]([C@@H](C)O)C(=O)N1)[C@@H](C)O)C(=O)N1CCC[C@H]1C(=O)N[C@@H](CO)C(=O)N[C@@H](CO)C(=O)N[C@H](C(=O)N[C@@H](CC(N)=O)C(=O)N[C@H](C(=O)NCC(=O)N[C@@H](CO)C(=O)N[C@@H](CCCNC(=N)N)C(=O)N[C@H](C(=O)N[C@@H](Cc1ccc(O)cc1)C(N)=O)[C@@H](C)O)C(C)C)[C@@H](C)O
As to B2, the figures for the IC50 in assay [3] and in assay [4] were 0.365 nM and 112 nM, respectively.

B3: N^ε1-[(4S)-4-carboxy-4-[[(4S)-4-carboxy-4-(19-carboxynonadecanoylamino)butanoyl]amino]butanoyl]-[His14,Arg17,Pro21,Pro27]-h-amylin (peptide)
peptide: K([γGlu-γGlu-C20 diacid])CNTATCATQRLAHFLRHSSPNFGAIPSSTNVGSNTY-NH2
modifications: disulfide 2-7; N-terminus assumed
SMILES: CC[C@H](C)[C@H](NC(=O)[C@H](C)NC(=O)CNC(=O)[C@H](Cc1ccccc1)NC(=O)[C@H](CC(N)=O)NC(=O)[C@@H]1CCCN1C(=O)[C@H](CO)NC(=O)[C@H](CO)NC(=O)[C@H](Cc1c[nH]cn1)NC(=O)[C@H](CCCNC(=N)N)NC(=O)[C@H](CC(C)C)NC(=O)[C@H](Cc1ccccc1)NC(=O)[C@H](Cc1c[nH]cn1)NC(=O)[C@H](C)NC(=O)[C@H](CC(C)C)NC(=O)[C@H](CCCNC(=N)N)NC(=O)[C@H](CCC(N)=O)NC(=O)[C@@H](NC(=O)[C@H](C)NC(=O)[C@@H]1CSSC[C@H](NC(=O)[C@@H](N)CCCCNC(=O)CC[C@H](NC(=O)CC[C@H](NC(=O)CCCCCCCCCCCCCCCCCCC(=O)O)C(=O)O)C(=O)O)C(=O)N[C@@H](CC(N)=O)C(=O)N[C@@H]([C@@H](C)O)C(=O)N[C@@H](C)C(=O)N[C@@H]([C@@H](C)O)C(=O)N1)[C@@H](C)O)C(=O)N1CCC[C@H]1C(=O)N[C@@H](CO)C(=O)N[C@@H](CO)C(=O)N[C@H](C(=O)N[C@@H](CC(N)=O)C(=O)N[C@H](C(=O)NCC(=O)N[C@@H](CO)C(=O)N[C@@H](CC(N)=O)C(=O)N[C@H](C(=O)N[C@@H](Cc1ccc(O)cc1)C(N)=O)[C@@H](C)O)C(C)C)[C@@H](C)O
notes: also called compound 92
Consider B3, for which the IC50 in assay [1] amounted to 26 nM. Moreover, the “Ratio hCT/hAmylin binding” value in assay [2] was found to be 145.
